This is an account of results in patent US20240190964A1 (KYMAB, published 2024).

This experiment addresses T1, human ICOS (inducible T-cell co-stimulator) (human, UniProt Q9Y6W8 21-199).
T1 construct: also called the ICOS receptor
T1 sequence: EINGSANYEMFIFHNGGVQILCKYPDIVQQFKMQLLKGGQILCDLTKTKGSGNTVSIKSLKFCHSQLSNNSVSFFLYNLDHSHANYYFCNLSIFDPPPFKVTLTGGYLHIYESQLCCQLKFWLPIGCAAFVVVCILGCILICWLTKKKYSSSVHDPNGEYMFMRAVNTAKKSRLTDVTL
Description: ICOS receptor occupancy (free ICOS detection) on peripheral CD4 memory T cells in longitudinal PBMC samples, chipcytometry, patient dosed with KY1044 in vivo.

B1: KY1044 (aka STIM003), fully human IgG1 anti-ICOS antibody (antibody, V domains shown)
VH: EVQLVESGGGVVRPGGSLRLSCVASGVTFDDYGMSWVRQAPGKGLEWVSGINWNGGDTDYSDSVKGRFTISRDNAKNSLYLQMNSLRAEDTALYYCARDFYGSGSYYHVPFDYWGQGILVTVSS
VL: EIVLTQSPGTLSLSPGERATLSCRASQSVSRSYLAWYQQKRGQAPRLLIYGASSRATGIPDRFSGDGSGTDFTLSISRLEPEDFAVYYCHQYDMSPFTFGPGTKVDIKR
On to B1, for which the binding result was “binds”.
